Laboratory results from patent US6767991 (Boehringer Ingelheim, dated 2004).
Read-outs that look alike come from different tables or passages of the source. *1 amine or outer side, *2 acyl side, *3 side chain or, on linkers, in order; H or OH if unused. Primed or numbered codes have the meaning given here. Where no end group is shown, it is not given here. [ ]: non-standard residue; d: D form. Pro((4-tert-butyl-phenyl)-methoxy) = Pro(4-R13), R13 = (4-tert-butyl-phenyl)-methoxy; Hyp(4-Bn) = 4(R)-benzyloxyproline, O=C([C@@H]1C[C@@H](OCc2ccccc2)CN1[*:1])[*:2]; Pro(1-NpCH2O)″ = Pro(4-R13), R13 = naphthalen-1-ylmethoxy; Pro(2-NpCH2O)″ = Pro(4-R13), R13 = naphthalen-2-ylmethoxy; Glutaryl = O=C(CCCC(=O)[*:2])[*:1]; Pro(4-OBn) = Pro(4-R13), R13 = OBn; Pro(O-Bn) = Pro(4-R13), R13 = O-Bn; NMeI = CC[C@H](C)[C@H](NC)C(=O)O; Pro(Bn) = Pro(4-R13), R13 = Bn; AllylGly = C=CC[C@H](N)C(=O)O; Chg = N[C@H](C(=O)O)C1CCCCC1; Suc = O=C(CCC(=O)[*:2])[*:1]; Tle = CC(C)(C)[C@H](N)C(=O)O; code B = not defined here; Ac5c = NC1(C(=O)O)CCCC1; Acca = not defined here; Nva = CCC[C@H](N)C(=O)O; Abu = CC[C@H](N)C(=O)O; Acc = not defined here; Ac3c = NC1(C(=O)O)CC1

B1: Compound 124 (Table 1): Ac-Asp-Asp-Ile-Val-Pro-AlGly (peptide)
peptide: Ac-DDIVP[AllylGly]
B2: Compound 230 (Table 2): Ac-Asp-Asp-Ile-Val-Pro(Ph(CH2)3)-Nva (peptide)
peptide: Ac-DDIV[Pro(4-(Ph(CH2)3))][Nva]
B3: Compound 412 (Table 4): B [HOOC-CH2]2-NC(O)-; R4 cyclohexyl; P3 Val; R13 1-NpCH2O; P1 Acca (peptide)
peptide: {(HOOC-CH2)2‑NC(O)‑CH2‑CH(cyclohexyl)‑C(O)}-Val-[Pro(4-(1-NpCH2O))]-[Ac3c]
B4: Compound 237 (Table 2): DAE-Ile-Val-Pro(1-NpCH2O)-Acca (peptide)
peptide: Glutaryl-IVP[Ac3c]
modifications: not fully specified (residue 3); printed as DAE-Ile-Val-Pro(1-NpCH2O)-Acca
B5: Compound 122 (Table 1): Ac-Asp-Asp-Ile-Val-Pro-Abu (peptide)
peptide: Ac-DDIVP[Abu]
B6: Compound 409 (Table 4): B HOOC-CH2-N(Me)-C(O)-; R4 cyclohexyl; P3 Val; R13 1-NpCH2O; P1 Acca (peptide)
peptide: {HOOC‑CH2‑N(Me)‑C(O)‑CH2‑CH(cyclohexyl)‑C(O)}-Val-[Pro(4-(1-NpCH2O))]-[Ac3c]
B7: Compound 101 (Table 1): Ac-Asp-Asp-Ile-Val-Pro-Cys (peptide)
peptide: Ac-DDIVPC
B8: Compound 201 (Table 2): Ac-Asp-Asp-Ile-Val-Pro(O-Bn)-Nva (peptide)
peptide: Ac-DDIV[Pro(O-Bn)][Nva]
B9: Compound 126 (Table 1): Ac-Asp-Asp-Ile-Val-Pro-Acca (peptide)
peptide: Ac-DDIVP[Ac3c]
B10: Compound 125 (Table 1): Ac-Asp-Asp-Ile-Val-Pro-Acpe (peptide)
peptide: Ac-DDIVP[Ac5c]
B11: Compound 410 (Table 4): B EtOOC-CH-N(Me)2-C(O)-; R4 cyclohexyl; P3 Val; R13 1-NpCH2O; P1 Acca (peptide)
peptide: {EtOOC‑CH‑N(Me)2‑C(O)‑CH2‑CH(cyclohexyl)‑C(O)}-Val-[Pro(4-(1-NpCH2O))]-[Ac3c]
B12: Compound 304 (Table 3): Ac-Chg-Val-W-Acc, W drawn (peptide)
peptide: Ac-[Chg]VX[Acc]
modifications: not fully specified (residue 3); printed as Ac-Chg-Val-W-Acc; also: further groups not given here
B13: Compound 102 (Table 1): Ac-Glu-Asp-Ile-Val-Pro-Cys (peptide)
peptide: Ac-EDIVPC
B14: Compound 221 (Table 2): DAD-Ile-Val-Pro(1-NpCH2O)-Nva (peptide)
peptide: Suc-IV[Pro(4-(1-NpCH2O))][Nva]
B15: Compound 216 (Table 2): Ac-Asp-Asp-Ile-Val-Pro(Bn)-Nva (peptide)
peptide: Ac-DDIV[Pro(Bn)][Nva]
B16: Compound 209 (Table 2): Ac-Asp-Asp-Ile-Val-Pro((4-tert-butyl-phenyl)-methoxy)-Nva (peptide)
peptide: Ac-DDIV[Pro((4-tert-butyl-phenyl)-methoxy)][Nva]
B17: Compound 225 (Table 2): Ac-Ile-Val-Pro(1-NpCH2O)-Nva (peptide)
peptide: Ac-IVP[Nva]
modifications: not fully specified (residue 3); printed as Ac-Ile-Val-Pro(1-NpCH2O)-Nva
B18: Compound 131 (Table 1): Ac-Asp-Glu-Chg-Glu-Glu-Cys (peptide)
peptide: Ac-DE[Chg]EEC
B19: Compound 208 (Table 2): Ac-Asp-Asp-Ile-Val-Pro(2-NpCH2O)-Nva (peptide)
peptide: Ac-DDIV[Pro(2-NpCH2O)″][Nva]
B20: Compound 220 (Table 2): DAD-N(Me)Ile-Val-Pro(1-NpCH2O)-Nva (peptide)
peptide: Suc-[NMeI]V[Pro(4-(1-NpCH2O))][Nva]
B21: Compound 261 (Table 2): Ac-Chg-Val-Pro(O-Bn)-Cys (peptide)
peptide: Ac-[Chg]VPC
modifications: not fully specified (residue 3); printed as Ac-Chg-Val-Pro(O-Bn)-Cys
B22: Compound 273 (Table 2): Ac-Asp-Asp-Ile-Val-Pro(R13 = H)-Nva (peptide)
peptide: Ac-DDIVP[Nva]
B23: Compound 406 (Table 4): B MeOOC-CH2-CH2-N(Me)c(O)-; R4 cyclohexyl; P3 Val; R13 1-NpCH2O; P1 Acca (peptide)
peptide: {MeOOC‑CH2‑CH2‑N(Me)c(O)‑CH2‑CH(cyclohexyl)‑C(O)}-Val-[Pro(4-(1-NpCH2O))]-[Ac3c]
B24: Compound 411 (Table 4): B [HOOC-(CH2)2]2-NH-CH2-; R4 cyclohexyl; P3 Val; R13 1-NpCH2O; P1 Acca (peptide)
peptide: {(HOOC-(CH2)2)2‑NH‑CH2‑CH2‑CH(cyclohexyl)‑C(O)}-Val-[Pro(4-(1-NpCH2O))]-[Ac3c]
B25: Compound 260 (Table 2): Ac-Asp-D-Glu-Ile-Val-Pro(O-Bn)-Cys (peptide)
peptide: Ac-D[dE]IV[Pro(4-OBn)]C
B26: Compound 105 (Table 1): Ac-Asp-D-Glu-Ile-Val-Pro-Cys (peptide)
peptide: Ac-D[dE]IVPC
B27: Compound 119 (Table 1): Ac-Asp-Asp-Ile-Val-Ile-Cys (peptide)
peptide: Ac-DDIVIC
B28: Compound 103 (Table 1): DAD-Asp-Ile-Val-Pro-Cys (peptide)
peptide: Suc-DIVPC
B29: Compound 223 (Table 2): B-Ile-Val-Pro(1-NpCH2O)-Nva, B drawn (peptide)
peptide: {code B}-IV[Pro(4-(1-NpCH2O))][Nva]
modifications: reading uncertain; also: further groups not given here, printed as B-Ile-Val-Pro(1-NpCH2O)-Nva
B30: Compound 207 (Table 2): Ac-Asp-Asp-Ile-Val-Pro(1-NpCH2O)-Nva (peptide)
peptide: Ac-DDIV[Pro(1-NpCH2O)″][Nva]
B31: Compound 405 (Table 4): B HOOC-CH2CH2-N(Me)C(O)-; R4 cyclohexyl; P3 Val; R13 1-NpCH2O; P1 Acca (peptide)
peptide: {HOOC‑CH2CH2‑N(Me)C(O)‑CH2‑CH(cyclohexyl)‑C(O)}-Val-[Pro(4-(1-NpCH2O))]-[Ac3c]
B32: Compound 217 (Table 2): Ac-Asp-Asp-Ile-Val-Pro(Ph(CH2)3)-Nva (peptide)
peptide: Ac-DDIV[Pro(4-(Ph(CH2)3))][Nva]
B33: Compound 219 (Table 2): Ac-Asp-Ile-Val-Pro(1-NpCH2O)-Nva (peptide)
peptide: Ac-DIV[Pro(4-(1-NpCH2O))][Nva]
B34: Compound 222 (Table 2): DAE-Ile-Val-Pro(1-NpCH2O)-Nva (peptide)
peptide: Glutaryl-IV[Pro(4-(1-NpCH2O))][Nva]
B35: Compound 224 (Table 2): B-Ile-Val-Pro(1-NpCH2O)-Nva, B drawn (peptide)
peptide: {code B}-IV[Pro(4-(1-NpCH2O))][Nva]
modifications: reading uncertain; also: further groups not given here, printed as B-Ile-Val-Pro(1-NpCH2O)-Nva
B36: Compound 130 (Table 1): DAD-Asp-Ile-Val-Pro-Nva (peptide)
peptide: Suc-DIVP[Nva]
B37: Compound 262 (Table 2): Ac-Ile-Val-Pro(1-NpCH2O)-Acca (peptide)
peptide: Ac-IVP[Ac3c]
modifications: not fully specified (residue 3); printed as Ac-Ile-Val-Pro(1-NpCH2O)-Acca
B38: Compound 133 (Table 1): Ac-Asp-Glu-Chg-Val-Glu(OBn)-Acca (peptide)
peptide: Ac-DE[Chg]V[Glu(OBn)][Acca]
modifications: reading uncertain; also: printed as Ac-Asp-Glu-Chg-Val-Glu(OBn)-Acca
B39: Compound 108 (Table 1): Ac-Asp-Tbg-Ile-Val-Pro-Cys (peptide)
peptide: Ac-D[Tle]IVPC
B40: Compound 407 (Table 4): B HOOC-CH2CH2-N(Me)2-C(O)-; R4 cyclohexyl; P3 Val; R13 1-NpCH2O; P1 Acca (peptide)
peptide: {HOOC‑CH2CH2‑N(Me)2‑C(O)‑CH2‑CH(cyclohexyl)‑C(O)}-Val-[Pro(4-(1-NpCH2O))]-[Ac3c]
B41: Compound 408 (Table 4): B MeOOC-(CH2)2-N(Me)2-C(O)-; R4 cyclohexyl; P3 Val; R13 1-NpCH2O; P1 Acca (peptide)
peptide: {MeOOC‑(CH2)2‑N(Me)2‑C(O)‑CH2‑CH(cyclohexyl)‑C(O)}-Val-[Pro(4-(1-NpCH2O))]-[Ac3c]
B42: Compound 413 (Table 4): B [HOOC-(CH2)2]2-NC(O)-; R4 cyclohexyl; P3 Val; R13 1-NpCH2O; P1 Acca (peptide)
peptide: {(HOOC-(CH2)2)2‑NC(O)‑CH2‑CH(cyclohexyl)‑C(O)}-Val-[Pro(4-(1-NpCH2O))]-[Ac3c]
B43: Compound 121 (Table 1): Ac-Asp-Asp-Ile-Val-Hyp(4-Bn)-Cys (peptide)
peptide: Ac-DDIV[Hyp(4-Bn)]C
B44: Compound 111 (Table 1): Ac-Asp-Asp-Tbg-Val-Pro-Cys (peptide)
peptide: Ac-DD[Tle]VPC
B45: Compound 274 (Table 2): Ac-Asp-D-Val-Ile-Val-Pro(R13 = H)-Cys (peptide)
peptide: Ac-D[dV]IVPC
B46: Compound 104 (Table 1): Ac-Asp-D-Asp-Ile-Val-Pro-Cys (peptide)
peptide: Ac-D[dD]IVPC

Columns and labels:
Assay in all cases: cell-based or functional assay
[1] = biological target: T1, recombinant NS3 protease with the NS4A peptide cofactor … (molar ratio enzyme:cofactor 1:100) (hepatitis C virus genotype 1b)
[2] = biological target: T1, recombinant NS3 protease with the NS4A …; remark: listed apart in the source
[3] = biological target: T1, recombinant NS3 protease with the NS4A …; remark: listed apart in the source
[4] = biological target: T1, recombinant NS3 protease with the NS4A …; remark: listed apart in the source

Binder	IC50 [1]	IC50 [2]	other results
B1	210 µM	–	–
B2	–	3.3 µM	–
B3	–	–	IC50 [3]: 0.8 µM
B4	–	5.5 µM	–
B5	315 µM	–	–
B6	–	–	IC50 [3]: 24 µM
B7	46 µM	–	–
B8	–	7.2 µM	–
B9	45 µM	–	–
B10	210 µM	–	–
B11	–	–	IC50 [3]: 32 µM
B12	–	–	IC50 [4]: 1.1 µM
B13	59 µM	–	–
B14	–	22 µM	–
B15	–	60 µM	–
B16	–	2.6 µM	–
B17	–	45 µM	–
B18	24 µM	–	–
B19	–	0.71 µM	–
B20	–	31 µM	–
B21	–	28 µM	–
B22	–	17.5 µM	–
B23	–	–	IC50 [3]: 25 µM

Binder	IC50 [1]	IC50 [2]	other results
B24	–	–	IC50 [3]: 0.36 µM
B25	–	0.18 µM	–
B26	1.5 µM	–	–
B27	90 µM	–	–
B28	26 µM	–	–
B29	–	51 µM	–
B30	–	0.39 µM	–
B31	–	–	IC50 [3]: 1.6 µM
B32	–	3 µM	–
B33	–	2.3 µM	–
B34	–	20 µM	–
B35	–	56 µM	–
B36	123 µM	–	–
B37	–	40 µM	–
B38	39 µM	–	–
B39	31 µM	–	–
B40	–	–	IC50 [3]: 1.5 µM
B41	–	–	IC50 [3]: 11 µM
B42	–	–	IC50 [3]: 0.12 µM
B43	1.7 µM	–	–
B44	79 µM	–	–
B45	–	7.6 µM	–
B46	8.5 µM	–	–
